# Publication PMC11661604
# Target: native Semliki Forest virus (SFV) virion (Semliki Forest virus)
# Experiment: SPR; Biacore 8K; purified SFV virions amine-coupled on a CM5 chip (more than 2,500 RU); Fc fusions flowed in gradient concentrations at 30 μL/min in PBS with 0.05% Tween-20, pH 7.4, 25°C; 1:1 binding model
Substance,Kd [nM],increase in KD compared to LA2-3 [nM]
LA2-3-Fc (from UniProt P98155-1 69-152) (Fc fusion),445,
LA2-5-Fc (from UniProt P98155-1 69-237) (Fc fusion),269,
"VLDLRLBD-Fc (ligand-binding domain of human VLDLR, LA1-8, Fc fusion) (from UniProt P98155-1 31-355)",252,
LA3-4-Fc (from UniProt P98155-1 110-191) (Fc fusion),1480,
LA3-5-Fc (from UniProt P98155-1 110-237) (Fc fusion),438,
LA1-3-Fc (from UniProt P98155-1 31-152) (Fc fusion),,100
LA3-Fc (from UniProt P98155-1 110-152) (Fc fusion),903,
